Data: PMC8625570, “Selectivity Determinants of RHO GTPase Binding to IQGAPs” (International Journal of Molecular Sciences, 2021)
Values joined by “and” are separate entries in the source; they are usually repeats but may differ in a detail not shown here. Equal entries are not always repeated.

B1: IQGAP1^C794 (C-terminal half of human IQGAP1 with the GRD, RGCT and CT domains) (domain or fragment, UniProt P46940 863-1657, looked up)
chain: DPPMVVVRKFVHLLDQSDQDFQEELDLMKMREEVITLIRSNQQLENDLNLMDIKIGLLVKNKITLQDVVSHSKKLTKKNKEQLSDMMMINKQKGGLKALSKEKREKLEAYQHLFYLLQTNPTYLAKLIFQMPQNKSTKFMDSVIFTLYNYASNQREEYLLLRLFKTALQEEIKSKVDQIQEIVTGNPTVIKMVVSFNRGARGQNALRQILAPVVKEIMDDKSLNIKTDPVDIYKSWVNQMESQTGEASKLPYDVTPEQALAHEEVKTRLDSSIRNMRAVTDKFLSAIVSSVDKIPYGMRFIAKVLKDSLHEKFPDAGEDELLKIIGNLLYYRYMNPAIVAPDAFDIIDLSAGGQLTTDQRRNLGSIAKMLQHAASNKMFLGDNAHLSIINEYLSQSYQKFRRFFQTACDVPELQDKFNVDEYSDLVTLTKPVIYISIGEIINTHTLLLDHQDAIAPEHNDPIHELLDDLGEVPTIESLIGESSGNLNDPNKEALAKTEVSLTLTNKFDVPGDENAEMDARTILLNTKRLIVDVIRFQPGETLTEILETPATSEQEAEHQRAMQRRAIRDAKTPDKMKKSKSVKEDSNLTLQEKKEKIQTGLKKLTELGTVDPKNKYQELINDIARDIRNQRRYRQRRKAELVKLQQTYAALNSKATFYGEQVDYYKSYIKTCLDNLASKGKVSKKPREMKGKKSKKISLKYTAARLHEKGVLLEIEDLQVNQFKNVIFEISPTEEVGDFEVKAKFMGVQMETFMLHYQDLLQLQYEGVAVMKLFDRAKVNVNLLIFLLNKKFYGK
B2: CDC42 (aa 1-178) (natural protein)
chain: not shown
B3: IQGAP2^C795 (C-terminal fragment of IQGAP2) (domain or fragment, human, UniProt Q13576 780-1575, looked up)
chain: PLTVIRKFVYLLDQSDLDFQEELEVARLREEVVTKIRANQQLEKDLNLMDIKIGLLVKNRITLEDVISHSKKLNKKKGGEMEILNNTDNQGIKSLSKERRKTLETYQQLFYLLQTNPLYLAKLIFQMPQNKSTKFMDTVIFTLYNYASNQREEYLLLKLFKTALEEEIKSKVDQVQDIVTGNPTVIKMVVSFNRGARGQNTLRQLLAPVVKEIIDDKSLIINTNPVEVYKAWVNQLETQTGEASKLPYDVTTEQALTYPEVKNKLEASIENLRRVTDKVLNSIISSLDLLPYGLRYIAKVLKNSIHEKFPDATEDELLKIVGNLLYYRYMNPAIVAPDGFDIIDMTAGGQINSDQRRNLGSVAKVLQHAASNKLFEGENEHLSSMNNYLSETYQEFRKYFKEACNVPEPEEKFNMDKYTDLVTVSKPVIYISIEEIISTHSLLLEHQDAIAPEKNDLLSELLGSLGEVPTVESFLGEGAVDPNDPNKANTLSQLSKTEISLVLTSKYDIEDGEAIDSRSLMIKTKKLIIDVIRNQPGNTLTEILETPATAQQEVDHATDMVSRAMIDSRTPEEMKHSQSMIEDAQLPLEQKKRKIQRNLRTLEQTGHVSSENKYQDILNEIAKDIRNQRIYRKLRKAELAKLQQTLNALNKKAAFYEEQINYYDTYIKTCLDNLKRKNTRRSIKLDGKGEPKGAKRAKPVKYTAAKLHEKGVLLDIDDLQTNQFKNVTFDIIATEDVGIFDVRSKFLGVEMEKVQLNIQDLLQMQYEGVAVMKMFDKVKVNVNLLIYLLNKKFYGK
notes: IQGAP2, aa 780-1575; also called IQGAP2^C975

How the values were obtained:
RAC1 (aa 1-179) [1] = target: T1, RAC1 (aa 1-179) (human, UniProt P63000 1-179); assay: cell-based or functional assay
CDC42 (aa 1-178) [2] = target: B2; assay: SEC; analytical SEC, Superdex 200 10/300, 30 mM Tris/HCl pH 7.5, 150 mM NaCl, 5 mM MgCl2; IQGAP1^C794 and IQGAP2^C795 alone or mixed with CDC42•GppNHp or RAC1•GppNHp; fractions on Coomassie-stained SDS-PAGE; MW from a calibration curve; design: reference not given here; conditions: both partners purified
RAC1 (aa 1-179) [3] = target: T1, RAC1 (aa 1-179); assay: as above; design: reference not given here; conditions: both partners purified
[4] = target: the molecule itself; assay: as above; design: reference not given here
RAC1 Q74D = RAC1 Q74D (human, UniProt P63000 1-179, Q74D); assay: stopped-flow fluorescence spectrometry; kon from 0.2 µM mGppNHp-bound RHO GTPase with 2-8 µM IQGAP1^C794; koff by displacing with 10 µM unlabeled RAC1-GppNHp from 2 µM IQGAP1^C794 with 0.2 µM GTPase; Kd calculated from the rate constants; 25 °C; conditions: both partners purified
CDC42 (aa 1-178) [5] = target: B2; assay: as above; conditions: both partners purified
RAC1 T25K/N26D = RAC1 T25K/N26D (human, UniProt P63000 1-179, T25K | N26D); assay: as above; conditions: both partners purified
RAC3 (aa 1-192) [6] = target: T2, RAC3 (aa 1-192) (human, UniProt P60763 1-192); assay: as above; conditions: both partners purified
RAC2 (aa 1-192) [7] = target: T3, RAC2 (aa 1-192) (human, UniProt P15153 1-192); assay: as above; conditions: both partners purified
RAC1 M45E/N52E = RAC1 M45E/N52E (human, UniProt P63000 1-179, M45E | N52E); assay: as above; conditions: both partners purified
[8] = target: B3; assay: stopped-flow fluorescence spectrometry; association (kobs): 2 µM IQGAP1^C794 or IQGAP2^C795 mixed with 0.2 µM mGppNHp-bound RHO GTPase; 30 mM Tris-HCl pH 7.5, 10 mM K2HPO4/KH2PO4 pH 7.4, 2 mM MgCl2, 3 mM DTT, 25 °C; conditions: both partners purified
[9] = target: B1; assay: as above; conditions: both partners purified
RAC3 (aa 1-192) [10] = target: T2, RAC3 (aa 1-192); assay: as above; conditions: both partners purified
RAC2 (aa 1-192) [11] = target: T3, RAC2 (aa 1-192); assay: as above; conditions: both partners purified

Sequence of CDC42 (aa 1-178) (P60953 1-178): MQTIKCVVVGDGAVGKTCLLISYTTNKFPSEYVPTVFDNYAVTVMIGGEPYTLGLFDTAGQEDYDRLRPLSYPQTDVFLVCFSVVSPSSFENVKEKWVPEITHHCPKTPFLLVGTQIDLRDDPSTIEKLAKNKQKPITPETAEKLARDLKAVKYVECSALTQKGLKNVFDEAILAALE

Row | p50^GAP-stimulated GTP hydrolysis of tamraGTP-bound RAC1 (0.2 µM RAC1, 10 µM p50^GAP) in the presence of IQGAP1^C794 (RAC1 (aa 1-179) [1]) | stoichiometry N (CDC42 (aa 1-178) [2]) | stoichiometry N (RAC1 (aa 1-179) [3]) | binding result (RAC1 Q74D) | fold higher binding affinity than with RAC1 (CDC42 (aa 1-178) [5]) | binding result (RAC1 T25K/N26D) | binding result (RAC3 (aa 1-192) [6]) | Kd (RAC2 (aa 1-192) [7]) | fold faster kon than with RAC1 (RAC2 (aa 1-192) [7]) | fold lower Kd than with RAC1 (RAC2 (aa 1-192) [7]) | fold lower koff than with RAC1 (RAC2 (aa 1-192) [7]) | binding result (RAC1 M45E/N52E) | binding result [8] | binding result [9] | binding result (RAC3 (aa 1-192) [10]) | binding result (RAC2 (aa 1-192) [11]) | Binder | stoichiometry N [4]
1 | 25 fold | 1 IQGAP per GTPase (printed as 2:2) | 1 IQGAP per GTPase (printed as 2:2) | binds | 3 fold | binds | binds | 27 nM | 4 fold | 34 fold | 8 fold | binds |  |  |  |  | B1 | 2
2 |  |  |  |  |  |  |  |  |  |  |  |  | binds | binds |  |  | B2 | 2
3 |  | 1 IQGAP per GTPase (printed as 2:2) | 1 IQGAP per GTPase (printed as 2:2) |  |  |  |  |  |  |  |  |  |  |  | binds | binds | B3 | 3 and 4
